The series has as its target MtbGyrBAcore(Y129F) (Mycobacterium tuberculosis, UniProt P9WG45 426-675+P9WG47:2-500, Y129F;internal_change). The experiment in a line: X-ray crystallography.

Experimental findings from article PMC9844538 (Nature chemical biology, 2022) are described below.

As for GGCCCTACGGCTGAAAGCCGTAGGGCCCTACGGCTGAAAGCCGTAG (structured_DNA) [singly nicked duplex with GAA triloop ends], the binding result is reported as “binds”.
